According to patent US20230012273A1 (Boehringer Ingelheim, published 2023):

T1: cynoSIRPα (NP_001271679), Extracellular Domain + His-Tag (cynomolgus monkey)
T1 construct: also called CySIRPα NP_001271679; not shown: His-Tag
T1 chain: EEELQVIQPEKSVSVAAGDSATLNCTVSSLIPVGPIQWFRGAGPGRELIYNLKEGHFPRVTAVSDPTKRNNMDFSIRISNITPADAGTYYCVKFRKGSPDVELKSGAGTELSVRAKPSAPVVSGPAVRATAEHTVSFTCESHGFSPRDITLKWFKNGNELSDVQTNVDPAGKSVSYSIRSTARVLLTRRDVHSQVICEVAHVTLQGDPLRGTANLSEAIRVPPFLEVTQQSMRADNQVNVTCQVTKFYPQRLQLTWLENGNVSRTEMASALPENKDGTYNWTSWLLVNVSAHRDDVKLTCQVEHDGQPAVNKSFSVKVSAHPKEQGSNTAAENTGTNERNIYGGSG

T2: cynoSIRPα (EGM_02252), Extracellular Domain + His-Tag (cynomolgus monkey)
T2 construct: also called CySIRPα EGM_02252; not shown: His-Tag
T2 chain: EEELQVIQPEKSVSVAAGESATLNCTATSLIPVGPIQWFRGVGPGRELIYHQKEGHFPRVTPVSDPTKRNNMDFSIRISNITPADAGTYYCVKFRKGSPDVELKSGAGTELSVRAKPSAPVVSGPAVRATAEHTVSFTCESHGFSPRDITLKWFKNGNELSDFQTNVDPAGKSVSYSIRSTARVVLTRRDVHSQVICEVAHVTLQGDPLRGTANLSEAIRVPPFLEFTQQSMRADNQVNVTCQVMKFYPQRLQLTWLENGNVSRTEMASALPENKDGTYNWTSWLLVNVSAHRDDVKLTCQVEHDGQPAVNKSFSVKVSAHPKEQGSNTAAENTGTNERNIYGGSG

T3: cynoSIRPα (XP_015313155), Extracellular Domain + His-Tag (cynomolgus monkey)
T3 construct: also called CySIRPα XP_015313155; not shown: His-Tag
T3 chain: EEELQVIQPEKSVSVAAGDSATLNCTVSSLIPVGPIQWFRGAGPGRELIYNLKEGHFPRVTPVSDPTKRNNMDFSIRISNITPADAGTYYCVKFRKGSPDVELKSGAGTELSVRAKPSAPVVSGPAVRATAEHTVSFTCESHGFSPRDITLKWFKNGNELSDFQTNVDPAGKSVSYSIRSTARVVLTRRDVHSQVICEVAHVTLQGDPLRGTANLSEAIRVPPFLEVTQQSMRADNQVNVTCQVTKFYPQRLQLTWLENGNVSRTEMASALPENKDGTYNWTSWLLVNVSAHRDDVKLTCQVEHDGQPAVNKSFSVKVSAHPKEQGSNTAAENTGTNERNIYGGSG


Columns and labels:
[1] = molecular target: T1, cynoSIRPα (NP_001271679), Extracellular …; assay: SPR, antibody captured on Protein A/G, ECD-His analyte, steady-state fit
Method: (§1) The binding kinetics of anti-SIRPα antibodies to various SIRPα analytes are determined by surface plasmon resonance (SPR) using a Biacore 8K+(Cytiva). 1×HBS-EP+(Cytiva) is used as running buffer and for all the dilutions unless stated otherwise. The Series S CM5 sensorchip is activated with a 1:1 mixture of 0.1 M NHS (N-hydroxysuccinimide) and 0.4 M EDC (1-Ethyl-3-(3-dimethylaminopropyl) carbodiimide hydrochloride) for 420 seconds at a flow rate of 10 μl/min and immobilized with Protein A/G (Thermo Scientific, 10 μg/ml in 10 mM acetate pH 4.5) for 420 seconds at a flowrate of 10 μl/min resulting in approximately 3000 RU of Protein A/G on the surface. The sensorchip is then deactivated with 1 M ethanolamine HCl pH 8.5 for 420 seconds at a flowrate of 10 μl/min.
(§2) Antibodies (approximately 1 ug/ml) are captured on the Protein A/G surface for 60 seconds at a flowrate of 10 μl/min resulting in capture levels of approximately 240 RU. Dilutions of each SIRP protein (Extracellular Domain+His-Tag, with the concentrations as indicated) are injected as analytes over the captured antibody for 300 seconds of association at a flowrate of 30 μl/min, followed by a dissociation for 600 seconds.
(§3) The above procedures are used to measure binding properties of antibodies of the present disclosure. For each analyte used, the highest concentration was as indicated in Example 3 (see Table 36).

[2] = molecular target: T2, cynoSIRPα (EGM_02252), Extracellular …; assay: as above
Method: as §1, §2, §3

[3] = molecular target: T3, cynoSIRPα (XP_015313155), Extracellular …; assay: as above
Method: as §1, §2, §3

[4] = molecular target: T4, Human SIRPαV2 (CAA71403.1), Extracellular Domain + His-Tag (human, UniProt P78324 31-373); assay: SPR, antibody captured on Protein A/G, ECD-His analyte, 1:1 fit
T4 construct: also called huSIRPαV2; hSIRPαV2; not shown: His-Tag
T4 sequence (P78324 other isoform, or with tags, fused parts or gaps): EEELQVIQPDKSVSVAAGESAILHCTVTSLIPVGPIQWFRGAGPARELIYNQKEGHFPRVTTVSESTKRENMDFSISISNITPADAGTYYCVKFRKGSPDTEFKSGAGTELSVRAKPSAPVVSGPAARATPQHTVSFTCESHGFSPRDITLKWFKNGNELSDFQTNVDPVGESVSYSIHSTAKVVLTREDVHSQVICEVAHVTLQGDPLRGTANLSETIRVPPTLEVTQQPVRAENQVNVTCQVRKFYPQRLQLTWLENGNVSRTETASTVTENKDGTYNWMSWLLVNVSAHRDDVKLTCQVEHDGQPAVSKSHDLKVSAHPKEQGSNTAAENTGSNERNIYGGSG
In short: (§4)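 Analyte was His-tagged SIRPα extracellular domain in dilution series, associating 300 s and dissociating 600 s at 30 μl/min. Ligand was antibody captured (~240 RU) on immobilized Protein A/G (~3000 RU). Running buffer HBS-EP+.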

[5] = molecular target: T5, Human SIRPαV1 (NP_542970.1), Extracellular Domain + His-Tag (human, UniProt P78324 31-373); assay: as above
T5 construct: also called huSIRPαV1; hSIRPαV1; not shown: His-Tag
T5 sequence (P78324 other isoform, or with tags, fused parts or gaps): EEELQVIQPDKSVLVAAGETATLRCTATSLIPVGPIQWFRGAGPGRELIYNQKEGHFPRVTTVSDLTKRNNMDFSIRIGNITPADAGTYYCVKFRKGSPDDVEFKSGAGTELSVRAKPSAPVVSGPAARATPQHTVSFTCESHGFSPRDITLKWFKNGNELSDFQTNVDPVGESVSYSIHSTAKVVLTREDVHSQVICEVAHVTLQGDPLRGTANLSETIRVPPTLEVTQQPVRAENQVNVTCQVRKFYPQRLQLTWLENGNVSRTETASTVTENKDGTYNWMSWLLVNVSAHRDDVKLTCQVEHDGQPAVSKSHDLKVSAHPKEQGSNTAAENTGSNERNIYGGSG
In short: as §4

Binder	Kd [1]	Kd [2]	Kd [3]	Kd [4]	koff [4]	kon [4]	Kd [5]	koff [5]	kon [5]
Antibody A15 (antibody, human IgG1, kappa, L234A L235A, V domains shown) VH: EVQLVESGGGLVQPGGSLRLSCAASGFTLSSYDMHWVRQAPGKGLEWVSAIGTAGDTYYTGSVKGRFTISRENAKNSLYLQMNSLRAEDTAVYYCVRGGVWDDAFDIWGQGTMVTVSS VL: DIQMTQSPSSLSASVGDRVTITCRASQDINNYLAWFQQKPGKAPKSLIYTASSLHSGVPSKFSGSGSGTDFTLTISSLQPEDFATYYCQQYVSYPYTFGQGTKLEIKR	317 nM	224 nM	174 nM	7.91 nM	0.00671 s⁻¹	848000 M⁻¹ s⁻¹	7.06 nM	0.00371 s⁻¹	526000 M⁻¹ s⁻¹
Antibody A12 (antibody, human IgG1, kappa, L234A L235A, V domains shown) VH: EVQLVESGGGLVQPGGSLRLSCAASGFTLSSYDMHWVRQATGKGLEWVSAIGTAGDTYYTGSVKGRFTISRENAKNSLYLQMNSLRASDTAVYYCVRGGVWDDAFDIWGQGTMVTVSS VL: DIQMTQSPSSLSASVGDRVTITCRASQDINNYLAWFQQKPGKAPKSLIYTASSLHSGVPSKFSGSGSGTDFTLTISSLQPEDFATYYCQQYVSYPYTFGQGTKLEIKR	384 nM	247 nM	195 nM	8.96 nM	0.00689 s⁻¹	769000 M⁻¹ s⁻¹	7.83 nM	0.00378 s⁻¹	482000 M⁻¹ s⁻¹
Antibody A13 (antibody, human IgG1, kappa, L234A L235A, V domains shown) VH: EVQLVESGGGLVQPGGSLRLSCAASGFTLSSYDMHWVRQAPGKGLEWVSAIGTAGDTYYTGSVKGRFTISRENAKNSLYLQMNSLRAADTAVYYCVRGGVWDDAFDIWGQGTMVTVSS VL: DIQMTQSPSSLSASVGDRVTITCRASQDINNYLAWFQQKPGKAPKSLIYTASSLHSGVPSKFSGSGSGTDFTLTISSLQPEDFATYYCQQYVSYPYTFGQGTKLEIKR	330 nM	223 nM	177 nM	8.36 nM	0.00635 s⁻¹	760000 M⁻¹ s⁻¹	7.28 nM	0.00352 s⁻¹	484000 M⁻¹ s⁻¹

The remaining binders from weak to strong by Kd [1], led by results:

Kd [1]	Kd [2]	Kd [3]	Kd [4]	koff [4]	kon [4]	Kd [5]	koff [5]	kon [5]	Binder
346 nM	230 nM	174 nM	8.25 nM	0.00652 s⁻¹	791000 M⁻¹ s⁻¹	7.34 nM	0.00363 s⁻¹	495000 M⁻¹ s⁻¹	Antibody A9 (antibody, human IgG1, kappa, L234A L235A, V domains shown) VH: EVQLVESGGGLVQPGGSLRLSCAASGFTLSSYDMHWVRQAPGKGLEWVSAIGTAGDTYYTGSVKGRFTISRENAKNSLYLQMNSLRADDTAVYYCVRGGVWDDAFDIWGQGTMVTVSS VL: DIQMTQSPSSLSASVGDRVTITCRASQDINNYLAWFQQKPGKAPKSLIYTASSLHSGVPSKFSGSGSGTDFTLTISSLQPEDFATYYCQQYVSYPYTFGQGTKLEIKR
316 nM	222 nM	176 nM	7.95 nM	0.00648 s⁻¹	816000 M⁻¹ s⁻¹	8.13 nM	0.00397 s⁻¹	488000 M⁻¹ s⁻¹	Antibody A14 (antibody, human IgG1, kappa, L234A L235A, V domains shown) VH: EVQLVESGGGLVQPGGSLRLSCAASGFTLSSYDMHWVRQAPGKGLEWVSAIGTAGDTYYTGSVKGRFTISRENAKNSLYLQMNSLRASDTAVYYCVRGGVWDDAFDIWGQGTMVTVSS VL: DIQMTQSPSSLSASVGDRVTITCRASQDINNYLAWFQQKPGKAPKSLIYTASSLHSGVPSKFSGSGSGTDFTLTISSLQPEDFATYYCQQYVSYPYTFGQGTKLEIKR
306 nM	224 nM	174 nM	8.22 nM	0.0063 s⁻¹	766000 M⁻¹ s⁻¹	7.98 nM	0.00377 s⁻¹	472000 M⁻¹ s⁻¹	Antibody A16 (antibody, human IgG1, kappa, L234A L235A, V domains shown) VH: EVQLVESGGGLVQPGGSLRLSCAASGFTLSSYDMHWVRQAPGKGLEWVSAIGTAGDTYYTGSVKGRFTISRENAKNSLYLQMNSLRAGDTAVYYCVRGGVWDDAFDIWGQGTMVTVSS VL: DIQMTQSPSSLSASVGDRVTITCRASQDINNYLAWFQQKPGKAPKSLIYTASSLHSGVPSKFSGSGSGTDFTLTISSLQPEDFATYYCQQYVSYPYTFGQGTKLEIKR
